Columns and labels:
Ets1 DNA-binding domain = target: T1, Ets1 DNA-binding domain (UniProt P14921 P14921:335-415); experiment: EMSA
T1 sequence: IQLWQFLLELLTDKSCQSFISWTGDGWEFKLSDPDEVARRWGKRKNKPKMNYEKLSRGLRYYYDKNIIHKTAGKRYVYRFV
Method: (§1) Electrophoretic mobility shift assay (EMSA). Recombinant DMP1 protein was prepared in Sf9 cells [Hirai and Sherr, Mol. Cell. Biol. 16:6457-6467 (1996)]. Purified bacterial proteins representing the Ets1 DNA binding domain or full-length Ets1 [Inoue, et al., J. Biol. Chem. 273:29188-29194 (1998)] were used. EMSAs were performed [Inoue and Sherr, Mol. Cell. Biol. 18:1590-1600 (1998)] using either a 281-bp genomic fragment (−225 to +56) or double-stranded oligonucleotides containing the DMP1/Ets site obtained by annealing oligonucleotide 5′-[…]-3′ (sense strand SEQ ID NO:41); DMP1/Ets consensus sequence underlined) with a complementary antisense strand. For competition experiments, a 200-fold excess of unlabelled oligonucleotides was added to reaction mixtures before the probe. To verify the identity of the proteins in shifted complexes, reaction mixtures were incubated with control nonimmune rabbit serum (NRS), serum AF [Hirai and Sherr, Mol. Cell. Biol. 16:6457-6467 (1996)] and M-10 (both to DMP1 carboxylterminal epitopes), S-19 (DMP1 N-terminus), or C-20 (Ets1 C-terminus) before electrophoresis. M-10, S-19, and C-20 were from Santa Cruz Biotechnology.

Ets1 full length = target: T2, Ets1 full length (UniProt P14921 P14921:1-441); experiment: EMSA; supershifted by Ets1 antiserum
T2 sequence: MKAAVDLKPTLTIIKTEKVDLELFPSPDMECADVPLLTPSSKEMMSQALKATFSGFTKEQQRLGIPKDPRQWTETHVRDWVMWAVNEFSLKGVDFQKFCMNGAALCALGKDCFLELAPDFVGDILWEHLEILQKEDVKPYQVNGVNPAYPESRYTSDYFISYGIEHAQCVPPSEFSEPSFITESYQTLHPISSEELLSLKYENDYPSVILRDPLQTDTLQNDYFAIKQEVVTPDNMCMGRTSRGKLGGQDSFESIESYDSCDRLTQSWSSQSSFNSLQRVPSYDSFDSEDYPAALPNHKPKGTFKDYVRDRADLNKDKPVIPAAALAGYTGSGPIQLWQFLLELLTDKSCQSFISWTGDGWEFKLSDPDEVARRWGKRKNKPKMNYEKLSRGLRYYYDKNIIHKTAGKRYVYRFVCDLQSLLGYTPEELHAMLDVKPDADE
Method: as §1

cyclin D1 [1] = target: T3, cyclin D1 (mouse, UniProt P25322 1-295); experiment: anti-Flag immunoprecipitation from Sf9 lysates, Western blot for cyclin D1
T3 construct: 35S-labelled in vitro translation product in the pull-down; baculovirus product in Sf9 cells
Excerpt: The series of DMP1 deletion mutants and the K319E point mutant were then used to determine the cyclin D binding domain of DMP1. Expression vectors encoding murine wild-type DMP1, the corresponding deletion mutations, or K319E (i. e., wildtype DMP1 and M1-M11, defined in FIG. 10, Table 1) were cotransfected with an expression vector encoding cyclin D1 into SF9 cells. Wildtype DMP1 and M1-M11 were expressed containing Flag-tags. SF9 lysates were immunoprecipitated with an antibody raised against the Flag-tag. The immunoprecipitates were resolved individually by gel electrophoresis, and then Western blotted with an antibody raised against cyclin D1. […] Therefore, the cyclin D1 binding domain is missing in the M9 deletion mutant. […] Therefore, deletion of the N-terminal domain of DMP1 (i.e., amino acids 1-223) abrogates its ability to interact with D-type cyclins, and thus, the region of DMP1 from residues 1-223 contains a specific cyclin D interaction motif required for D-type cyclin-DMP1 association.

cyclin D1 [2] = target: T3, cyclin D1; experiment: GST pull-down of 35S-labelled in vitro translated cyclin
Method: (§2) Because DMP1 interacted with cyclin D2 in yeast, the ability of a glutathione S-transferase (GST)-DMP1 fusion protein to bind D-type cyclins in vitro is examined. GST is fused to residues 176-761 of DMP1 (in lieu of GAL4 in the original cDNA clone), and the bacterially synthesized recombinant protein is incubated with [³⁵S]methionine-labeled D-type cyclins prepared by transcription and translation in vitro. As a positive control, GST-RB which can specifically bind D-type cyclins in this assay is used (15). Bound cyclins recovered on washed glutathione-Sepharose beads are analyzed by electrophoresis on denaturing gels. […] GST-DMP1 is less efficient than GST-RB in binding cyclins D2 and D3 (˜4-fold less binding), and under these conditions, an interaction with D1 is not detected (lanes 3, 7, 11). No labeled proteins bind to GST alone (lanes 4, 8, 12), and neither cyclin A nor cyclin E bind to GST-RB or to GST-DMP1. A cyclin D2 mutant disrupted in an amino-terminal Leu-X-Cys-X-Glu pentapeptide that is required for high efficiency GST-RB binding is not detectably compromised in its interaction with GST-DMP1 (negative data not shown); in agreement, DMP1 bears no homology to RB or to RB-related family members (p107 and p130).

cyclin D2 = target: T4, cyclin D2 (mouse, UniProt P30280 1-289); experiment: GST pull-down of 35S-labelled in vitro translated cyclin on glutathione-Sepharose, gel autoradiography
T4 construct: 35S-labelled in vitro translation product in the pull-down; baculovirus product in Sf9 cells
Method: as §2

cyclin D3 = target: T5, cyclin D3 (mouse, UniProt P30282 1-292); experiment: as above
T5 construct: 35S-labelled in vitro translation product in the pull-down; baculovirus product in Sf9 cells
T5 sequence (looked up): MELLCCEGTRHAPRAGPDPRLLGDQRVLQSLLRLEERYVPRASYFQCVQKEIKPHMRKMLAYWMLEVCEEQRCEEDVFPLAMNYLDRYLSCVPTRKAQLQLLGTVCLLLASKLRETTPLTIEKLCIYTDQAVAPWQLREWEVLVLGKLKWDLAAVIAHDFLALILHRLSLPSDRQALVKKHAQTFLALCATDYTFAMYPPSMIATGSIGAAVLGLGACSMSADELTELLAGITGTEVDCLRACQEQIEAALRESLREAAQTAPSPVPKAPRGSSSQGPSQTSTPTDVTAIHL
Method: as §2

cyclin D2-DMP1 complex = target: T6, cyclin D2-DMP1 complex (mouse, UniProt P30280 1-289); experiment: coinfected Sf9 cells, immunoprecipitation with antiserum to DMP1
T6 construct: Complex formed in coinfected Sf9 cells
T6 sequence (P30280 whole entry, one chain of several): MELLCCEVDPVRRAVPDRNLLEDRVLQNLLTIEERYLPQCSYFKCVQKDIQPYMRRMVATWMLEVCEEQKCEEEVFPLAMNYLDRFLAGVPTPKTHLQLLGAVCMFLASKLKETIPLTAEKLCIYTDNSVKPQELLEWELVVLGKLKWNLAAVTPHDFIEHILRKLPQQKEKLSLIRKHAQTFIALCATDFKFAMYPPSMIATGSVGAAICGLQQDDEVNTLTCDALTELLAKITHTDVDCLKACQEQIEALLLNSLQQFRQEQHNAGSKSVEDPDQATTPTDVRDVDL

T3 sequence (P25322 whole entry): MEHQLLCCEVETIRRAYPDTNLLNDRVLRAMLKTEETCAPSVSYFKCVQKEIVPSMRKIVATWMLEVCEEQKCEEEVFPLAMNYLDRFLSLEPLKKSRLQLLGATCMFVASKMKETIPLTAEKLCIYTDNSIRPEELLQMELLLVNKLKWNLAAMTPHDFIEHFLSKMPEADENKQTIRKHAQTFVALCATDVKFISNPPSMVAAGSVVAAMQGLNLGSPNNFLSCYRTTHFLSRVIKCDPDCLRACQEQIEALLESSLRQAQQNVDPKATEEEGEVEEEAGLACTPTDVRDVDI
T4 sequence (P30280 whole entry): as the sequence (P30280 whole entry, one chain of several) above

B1: ARF DMP1/Ets site oligo 23 bp (dsDNA)
DNA 1: AATTGGGACCCCGGATGCGGCAG
DNA 2: CTGCCGCATCCGGGGTCCCAATT
- binding result (Ets1 DNA-binding domain): binds
- binding result (Ets1 full length): binds

B2: Flag-tagged DMP1 deletion mutant M9 (amino acids 234-761) (other)
chain: KLKELRIKHGNDWATIGAALGRSASSVKDRCRLMKDTCNTGKWTEEEEKRLAEVVHELTSTEPGDIVTQGVSWAAVAERVGTRSEKQCRSKWLNYLNWKQSGGTEWTKEDEINLILRIAELDVADENDINWDLLAEGWSSVRSPQWLRSKWWTIKRQIANHKDVSFPVLIKGLKQLHENQKNNPVLLENKSGSGVPNSNCNSSVQHVQIRVARLEDNTAISPSPMAALQIPVQITHVSSTDSPAASADSETITLNSGTLQTFEILPSFPLQPTGTPGTYLLQTSSSQGLPLTLTTNPTLTLAAAAPASPEQIIVHALSPEHLLNTSDNVTVQCHTPRVIIQTVATEDITSSLSQEELTVDSDLHSSDFPEPPDALEADTFPDEIPRPKMTIQPSFNNAHVSKFSDQNSTELMNSVMVRTEEEIADTDLKQEEPPSDLASAYVTEDLESPTIVHQVHQTIDDETILIVPSPHGFIQASDVIDTESVLPLTTLTDPIFQHHQEASNIIGSSLGSPVSEDSKDVEDLVNCH
notes: not shown: Flag-tag
- binding result (cyclin D1 [1]): no binding

B3: GST-DMP1 fusion protein (GST fused to residues 176-761 of DMP1) (other)
chain: GIKDATEIIFEMSKDERKDFYRTIAWGLNRPLFAVYRRVLRMYDDRNHVGKYTPEEIEKLKELRIKHGNDWATIGAALGRSASSVKDRCRLMKDTCNTGKWTEEEEKRLAEVVHELTSTEPGDIVTQGVSWAAVAERVGTRSEKQCRSKWLNYLNWKQSGGTEWTKEDEINLILRIAELDVADENDINWDLLAEGWSSVRSPQWLRSKWWTIKRQIANHKDVSFPVLIKGLKQLHENQKNNPVLLENKSGSGVPNSNCNSSVQHVQIRVARLEDNTAISPSPMAALQIPVQITHVSSTDSPAASADSETITLNSGTLQTFEILPSFPLQPTGTPGTYLLQTSSSQGLPLTLTTNPTLTLAAAAPASPEQIIVHALSPEHLLNTSDNVTVQCHTPRVIIQTVATEDITSSLSQEELTVDSDLHSSDFPEPPDALEADTFPDEIPRPKMTIQPSFNNAHVSKFSDQNSTELMNSVMVRTEEEIADTDLKQEEPPSDLASAYVTEDLESPTIVHQVHQTIDDETILIVPSPHGFIQASDVIDTESVLPLTTLTDPIFQHHQEASNIIGSSLGSPVSEDSKDVEDLVNCH
notes: Made in bacteria, held on glutathione-Sepharose beads; not shown: glutathione S-transferase encoded by pGEX-3X (Pharmacia)
- binding result (cyclin D1 [2]): no binding
- fold less binding than GST-RB (cyclin D2): ~4 fold less binding than GST-RB
- fold less binding than GST-RB (cyclin D3): ~4 fold less binding than GST-RB

B4: catalytically inactive CDK4 mutant (enzyme, mouse, UniProt P30285 1-303, looked up)
chain: MAATRYEPVAEIGVGAYGTVYKARDPHSGHFVALMSVRVPNGGAAGGGLPVSTVREVALLRRLEAFEHPNVVRLMDVCATSRTDRDIKVTLVFEHIDQDLRTYLDKAPPPGLPVETIKDLMRQFLSGLDFLHANCIVHRDLKPENILVTSNGTVKLADFGLARIYSYQMALTPVVVTLWYRAPEVLLQSTYATPVDMWSVGCIFAEMFRRKPLFCGNSEADQLGKIFDLIGLPPEDDWPREVSLPRGAFAPRGPRPVQSVVPEMEESGAQLLLEMLTFNPHKRISAFRALQHSYLHKEESDAE
notes: also called mutant CDK4
- binding result (cyclin D2-DMP1 complex): no binding

From US20030028002A1, “Cyclin D binding factor, and uses thereof” (published 2003)
